Laboratory results: the supplement of paper PMC5998384

Legend:
HeLa Kyoto [1] = experiment: solubility in G1/S (NP-40 vs SDS abundance) (log2 ratio); higher = more soluble; conditions: cell cycle stage: G1/S
HeLa Kyoto [2] = experiment: melting temperature (median over replicates), in situ; higher = more thermally stable
HeLa Kyoto [3] = experiment: thermal stability score vs G1/S (z-score of summed log2 fold changes over temperatures); higher = more thermally stable than in G1/S
HeLa Kyoto [4] = experiment: solubility change mitosis vs G1/S (difference of NP-40 vs SDS log2 ratios) (log2 ratio difference); higher = more soluble in mitosis
[5] = cell cycle stage: early G1 (4.5 h after nocodazole release)
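Throughout, for melting temperature (median over replicates), in situ: HeLa Kyoto cells synchronized by double thymidine or nocodazole block, proteins quantified by TMT10plex mass spectrometry, three independent biological replicates.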
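Throughout, for solubility change mitosis vs G1/S (difference of NP-40 vs SDS log2 ratios): synchronized HeLa Kyoto cells (double thymidine block for G1/S, nocodazole release for mitosis), protein amounts in NP-40 versus SDS lysates quantified by mass spectrometry, three biological replicates.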
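Throughout, for solubility in G1/S (NP-40 vs SDS abundance): HeLa Kyoto cells arrested at G1/S by double thymidine block, proteins quantified by TMT10plex mass spectrometry in mild NP-40 versus SDS extracts, three biological replicates.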
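Throughout, for thermal stability score vs G1/S (z-score of summed log2 fold changes over temperatures): synchronized HeLa Kyoto cells, proteins quantified by TMT10plex mass spectrometry, three biological replicates, mitosis taken 0.5 h after nocodazole release, G1/S directly after double thymidine block.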

Row | Sequence | solubility in G1/S (log2) (HeLa Kyoto [1]) | melting temperature (HeLa Kyoto [2]; cell cycle stage: G1/S) [°C] | melting temperature (HeLa Kyoto [2]; cell cycle stage: mitosis) [°C] | thermal stability score (HeLa Kyoto [3]; [5]) | thermal stability score (HeLa Kyoto [3]; cell cycle stage: mitosis) | solubility change mitosis (log2) (HeLa Kyoto [4])
1 | MSRPSSVSPRQPAPGGGGGGGPSPCGPGGGGRAKGLKDIRIDEEVKIAVNIALERFRYGDQREMEFPSSLTSTERAFIHRLSQSLGLVSKSKGKGANRYLTVKKKDGSETAHAMMTCNLTHNTKHAVRSLIQRFPVTNKERTELLPKTERGNVFAVEAENREMSKTSGRLNNGIPQIPVKRGESEFDSFRQSLPVFEKQEEIVKIIKENKVVLIVGETGSGKTTQIPQFLLDDCFKNGIPCRIFCTQPRRLAAIAVAERVAAERRERIGQTIGYQIRLESRVSPKTLLTFCTNGVLLRTLMAGDSTLSTVTHVIVDEVHERDRFSDFLLTKLRDLLQKHPTLKLILSSAALDVNLFIRYFGSCPVIYIQGRPFEVKEMFLEDILRTTGYTNKEMLKYKKEKQQEEKQQTTLTEWYSAQENSFKPESQRQRTVLNVTDEYDLLDDGGDAVFSQLTEKDVNCLEPWLIKEMDACLSDIWLHKDIDAFAQVFHLILTENVSVDYRHSETSATALMVAAGRGFASQVEQLISMGANVHSKASNGWMALDWAKHFGQTEIVDLLESYSATLEFGNLDESSLVQTNGSDLSAEDRELLKAYHHSFDDEKVDLDLIMHLLYNICHSCDAGAVLIFLPGYDEIVGLRDRILFDDKRFADSTHRYQVFMLHSNMQTSDQKKVLKNPPAGVRKIILSTNIAETSITVNDVVFVIDSGKVKEKSFDALNFVTMLKMVWISKASAIQRKGRAGRCRPGICFRLFSRLRFQNMLEFQTPELLRMPLQELCLHTKLLAPVNCPIADFLMKAPEPPPALIVRNAVQMLKTIDAMDTWEDLTELGYHLADLPVEPHLGKMVLCAVVLKCLDPILTIACTLAYRDPFVLPTQASQKRAAMLCRKRFTAGAFSDHMALLRAFQAWQKARSDGWERAFCEKNFLSQATMEIIIGMRTQLLGQLRASGFVRARGGGDIRDVNTNSENWAVVKAALVAGMYPNLVHVDRENLVLTGPKEKKVRFHPASVLSQPQYKKIPPANGQAAAIKALPTDWLIYDEMTRAHRIANIRCCSAVTPVTILVFCGPARLASNALQEPSSFRVDGIPNDSSDSEMEDKTTANLAALKLDEWLHFTLEPEAASLLLQLRQKWHSLFLRRMRAPSKPWSQVDEATIRAIIAVLSTEEQSAGLQQPSGIGQRPRPMSSEELPLASSWRSNNSRKSSADTEFSDECTTAERVLMKSPSPALHPPQKYKDRGILHPKRGTEDRSDQSSLKSTDSSSYPSPCASPSPPSSGKGSKSPSPRPNMPVRYFIMKSSNLRNLEISQQKGIWSTTPSNERKLNRAFWESSIVYLVFSVQGSGHFQGFSRMSSEIGREKSQDWGSAGLGGVFKVEWIRKESLPFQFAHHLLNPWNDNKKVQISRDGQELEPLVGEQLLQLWERLPLGEKNTTD [YTHDC2] | -0.57 | 50.2 | 50 | -0.356 | 0.243 | 0.163
2 | MSRRRHSDENDGGQPHKRRKTSDANETEDHLESLICKVGEKSACSLESNLEGLAGVLEADLPNYKSKILRLLCTVARLLPEKLTIYTTLVGLLNARNYNFGGEFVEAMIRQLKESLKANNYNEAVYLVRFLSDLVNCHVIAAPSMVAMFENFVSVTQEEDVPQVRRDWYVYAFLSSLPWVGKELYEKKDAEMDRIFANTESYLKRRQKTHVPMLQVWTADKPHPQEEYLDCLWAQIQKLKKDRWQERHILRPYLAFDSILCEALQHNLPPFTPPPHTEDSVYPMPRVIFRMFDYTDDPEGPVMPGSHSVERFVIEENLHCIIKSHWKERKTCAAQLVSYPGKNKIPLNYHIVEVIFAELFQLPAPPHIDVMYTTLLIELCKLQPGSLPQVLAQATEMLYMRLDTMNTTCVDRFINWFSHHLSNFQFRWSWEDWSDCLSQDPESPKPKFVREVLEKCMRLSYHQRILDIVPPTFSALCPANPTCIYKYGDESSNSLPGHSVALCLAVAFKSKATNDEIFSILKDVPNPNQDDDDDEGFSFNPLKIEVFVQTLLHLAAKSFSHSFSALAKFHEVFKTLAESDEGKLHVLRVMFEVWRNHPQMIAVLVDKMIRTQIVDCAAVANWIFSSELSRDFTRLFVWEILHSTIRKMNKHVLKIQKELEEAKEKLARQHKRRSDDDDRSSDRKDGVLEEQIERLQEKVESAQSEQKNLFLVIFQRFIMILTEHLVRCETDGTSVLTPWYKNCIERLQQIFLQHHQIIQQYMVTLENLLFTAELDPHILAVFQQFCALQA [NCBP1] | -0.297 | 50 | 50.4 | 0.234 | 0.31 | -0.144
3 | MSRYLRPPNTSLFVRNVADDTRSEDLRREFGRYGPIVDVYVPLDFYTRRPRGFAYVQFEDVRDAEDALHNLDRKWICGRQIEIQFAQGDRKTPNQMKAKEGRNVYSSSRYDDYDRYRRSRSRSYERRRSRSRSFDYNYRRSYSPRNSRPTGRPRRSRSHSDNDRFKHRNRSFSRSKSNSRSRSKSQPKKEMKAKSRSRSASHTKTRGTSKTDSKTHYKSGSRYEKESRKKEPPRSKSQSRSQSRSRSKSRSRSWTSPKSSGH [SRSF10] | -0.696 | 49.7 | 50.2 | 0.817 | -0.653 | 0.534
4 | MSSAPRSPTPRPRRMKKDESFLGKLGGTLARKRRAREVSDLQEEGKNAINSPMSPALVDVHPEDTQLEENEERTMIDPTSKEDPKFKELVKVLLDWINDVLVEERIIVKQLEEDLYDGQVLQKLLEKLAGCKLNVAEVTQSEIGQKQKLQTVLEAVHDLLRPRGWALRWSVDSIHGKNLVAILHLLVSLAMHFRAPIRLPEHVTVQVVVVRKREGLLHSSHISEELTTTTEMMMGRFERDAFDTLFDHAPDKLSVVKKSLITFVNKHLNKLNLEVTELETQFADGVYLVLLMGLLEDYFVPLHHFYLTPESFDQKVHNVSFAFELMLDGGLKKPKARPEDVVNLDLKSTLRVLYNLFTKYKNVE [PARVB] | 0.0443 |  | 50.4 | 0.418 | 0.496 | -0.137
5 | MSSIGTGYDLSASTFSPDGRVFQVEYAMKAVENSSTAIGIRCKDGVVFGVEKLVLSKLYEEGSNKRLFNVDRHVGMAVAGLLADARSLADIAREEASNFRSNFGYNIPLKHLADRVAMYVHAYTLYSAVRPFGCSFMLGSYSVNDGAQLYMIDPSGVSYGYWGCAIGKARQAAKTEIEKLQMKEMTCRDIVKEVAKIIYIVHDEVKDKAFELELSWVGELTNGRHEIVPKDIREEAEKYAKESLKEEDESDDDNM [PSMA3] | 0.204 | 60.7 | 56.7 | -2.57 | -3.19 | -0.0697
6 | MSSLHKSRIADFQDVLKEPSIALEKLRELSFSGIPCEGGLRCLCWKILLNYLPLERASWTSILAKQRELYAQFLREMIIQPGIAKANMGVSREDVTFEDHPLNPNPDSRWNTYFKDNEVLLQIDKDVRRLCPDISFFQRATDYPCLLILDPQNEFETLRKRVEQTTLKSQTVARNRSGVTNMSSPHKNSVPSSLNEYEVLPNGCEAHWEVVERILFIYAKLNPGIAYVQGMNEIVGPLYYTFATDPNSEWKEHAEADTFFCFTNLMAEIRDNFIKSLDDSQCGITYKMEKVYSTLKDKDVELYLKLQEQNIKPQFFAFRWLTLLLSQEFLLPDVIRIWDSLFADDNRFDFLLLVCCAMLMLIREQLLEGDFTVNMRLLQDYPITDVCQILQKAKELQDSK [TBC1D13] | 0.0698 | 53.2 | 54.1 | -0.565 | 0.385 | -0.145
7 | MSSLSGKVQTVLGLVEPSKLGRTLTHEHLAMTFDCCYCPPPPCQEAISKEPIVMKNLYWIQKNAYSHKENLQLNQETEAIKEELLYFKANGGGALVENTTTGISRDTQTLKRLAEETGVHIISGAGFYVDATHSSETRAMSVEQLTDVLMNEILHGADGTSIKCGIIGEIGCSWPLTESERKVLQATAHAQAQLGCPVIIHPGRSSRAPFQIIRILQEAGADISKTVMSHLDRTILDKKELLEFAQLGCYLEYDLFGTELLHYQLGPDIDMPDDNKRIRRVRLLVEEGCEDRILVAHDIHTKTRLMKYGGHGYSHILTNVVPKMLLRGITENVLDKILIENPKQWLTFK [PTER] | 0.0448 | 56.8 | 57 | -2.92 | -0.753 | -0.0354
8 | MSSPQAPEDGQGCGDRGDPPGDLRSVLVTTVLNLEPLDEDLFRGRHYWVPAKRLFGGQIVGQALVAAAKSVSEDVHVHSLHCYFVRAGDPKLPVLYQVERTRTGSSFSVRSVKAVQHGKPIFICQASFQQAQPSPMQHQFSMPTVPPPEELLDCETLIDQYLRDPNLQKRYPLALNRIAAQEVPIEIKPVNPSPLSQLQRMEPKQMFWVRARGYIGEGDMKMHCCVAAYISDYAFLGTALLPHQWQHKVHFMVSLDHSMWFHAPFRADHWMLYECESPWAGGSRGLVHGRLWRQDGVLAVTCAQEGVIRVKPQVSESKL [ACOT8] | -0.0523 | 51.9 | 53.8 | 0.114 | -0.515 | -0.588
9 | MSSRIARALALVVTLLHLTRLALSTCPAACHCPLEAPKCAPGVGLVRDGCGCCKVCAKQLNEDCSKTQPCDHTKGLECNFGASSTALKGICRAQSEGRPCEYNSRIYQNGESFQPNCKHQCTCIDGAVGCIPLCPQELSLPNLGCPNPRLVKVTGQCCEEWVCDEDSIKDPMEDQDGLLGKELGFDASEVELTRNNELIAVGKGSSLKRLPVFGMEPRILYNPLQGQKCIVQTTSWSQCSKTCGTGISTRVTNDNPECRLVKETRICEVRPCGQPVYSSLKKGKKCSKTKKSPEPVRFTYAGCLSVKKYRPKYCGSCVDGRCCTPQLTRTVKMRFRCEDGETFSKNVMMIQSCKCNYNCPHANEAAFPFYRLFNDIHKFRD [CYR61] | -0.183 | 52.8 | 54.1 | 5.63 | 3.33 | -0.133
10 | MSSSVRRKGKPGKGGGKGSSRGGRGGRSHASKSHGSGGGGGGGGGGGGGNRKASSRIWDDGDDFCIFSESRRPSRPSNSNISKGESRPKWKPKAKVPLQTLHMTSENQEKVKALLRDLQEQDADAGSERGLSGEEEDDEPDCCNDERYWPAGQEPSLVPDLDPLEYAGLASVEPYVPEFTVSPFAVQKLSRYGFNTERCQAVLRMCDGDVGASLEHLLTQCFSETFGERMKISEAVNQISLDECMEQRQEEAFALKSICGEKFIERIQNRVWTIGLELEYLTSRFRKSKPKESTKNVQENSLEICKFYLKGNCKFGSKCRFKHEVPPNQIVGRIERSVDDSHLNAIEDASFLYELEIRFSKDHKYPYQAPLVAFYSTNENLPLACRLHISEFLYDKALTFAETSEPVVYSLITLLEEESEIVKLLTNTHHKYSDPPVNFLPVPSRTRINNPACHKTVIPNNSFVSNQIPEVEKASESEESDEDDGPAPVIVENESYVNLKKKISKRYDWQAKSVHAENGKICKQFRMKQASRQFQSILQERQSLPAWEERETILNLLRKHQVVVISGMTGCGKTTQIPQFILDDSLNGPPEKVANIICTQPRRISAISVAERVAKERAERVGLTVGYQIRLESVKSSATRLLYCTTGVLLRRLEGDTALQGVSHIIVDEVHERTEESDFLLLVLKDIVSQRPGLQVILMSATLNAELFSDYFNSCPVITIPGRTFPVDQFFLEDAIAVTRYVLQDGSPYMRSMKQISKEKLKARRNRTAFEEVEEDLRLSLHLQDQDSVKDAVPDQQLDFKQLLARYKGVSKSVIKTMSIMDFEKVNLELIEALLEWIVDGKHSYPPGAILVFLPGLAEIKMLYEQLQSNSLFNNRRSNRCVIHPLHSSLSSEEQQAVFVKPPAGVTKIIISTNIAETSITIDDVVYVIDSGKMKEKRYDASKGMESLEDTFVSQANALQRKGRAGRVASGVCFHLFTSHHYNHQLLKQQLPEIQRVPLEQLCLRIKILEMFSAHNLQSVFSRLIEPPHTDSLRASKIRLRDLGALTPDERLTPLGYHLASLPVDVRIGKLMLFGSIFRCLDPALTIAASLAFKSPFVSPWDKKEEANQKKLEFAFANSDYLALLQAYKGWQLSTKEGVRASYNYCRQNFLSGRVLQEMASLKRQFTELLSDIGFAREGLRAREIEKRAQGGDGVLDATGEEANSNAENPKLISAMLCAALYPNVVQVKSPEGKFQKTSTGAVRMQPKSAELKFVTKNDGYVHIHPSSVNYQVRHFDSPYLLYHEKIKTSRVFIRDCSMVSVYPLVLFGGGQVNVQLQRGEFVVSLDDGWIRFVAASHQVAELVKELRCELDQLLQDKIKNPSIDLCTCPRGSRIISTIVKLVTTQ [DHX57] | -0.884 | 53 | 51.9 | -0.0848 | -0.271 | 0.223
